The supplement of paper PMC10126150
± gives the standard deviation of the averaged measurements.

System: ATP
Test: switch fluorescence ratio, 500 uM ATP over buffer (Cy3 cluster intensity, sum of 5 cycles each) (fold (ratio)); higher = stronger signal-on switching upon ATP binding; sequences stand for … in TCGTCGGCAGCGTCAGATGTGTATAAGAGACAGTTTTTTTTTTTTTTTTTTTTTTTTT…TC
Conditions: aptamer strand: ATP DNA aptamer (quencher-CACCTGGGGGAGTATTGCGGAGGAAGG + anchor), 100 nM annealed; ATP concentration: 500 uM
How it was run: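 The fluorescence ratio divides summed target-cycle Cy3 intensity by summed buffer-cycle Cy3 intensity for each cluster and is averaged per switch-domain sequence. Cy3-labelled switching-strand clusters on a modified Illumina MiSeq flow-cell were annealed to 100 nM quencher-labelled ATP aptamer, then imaged in selection buffer and again after 15 min with 500 uM ATP at 22 °C. Five such cycles were run, with NaOH stripping and re-annealing between them, and clusters outside 100-1000 RFU were excluded.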
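Note: ATP exposure 15 min at 22 °C before imaging.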

| Sequence | switch fluorescence ratio |
| --- | --- |
| GGCGGGACCG | 0.959 ± 0.03 |
| GGCGGGATAT | 1.01 ± 0.032 |
| GGCGGGATGC | 1 ± 0.031 |
| GGCGGGGGGG | 1.03 ± 0.048 |
| GGCGGGGGGT | 1.01 ± 0.024 |
| GGCGGGTGGG | 1.03 ± 0.089 |
| GGCGGTAAAG | 0.992 ± 0.037 |
| GGCGGTAGAG | 1.012 ± 0.0091 |
| GGCGGTTTGG | 1.002 ± 0.0058 |
| GGCGTATATC | 1.02 ± 0.023 |
| GGCGTATGTG | 0.95983 ± 0.00095 |
| GGCGTCAGGG | 1 ± 0.051 |
| GGCGTCTATC | 1.01 ± 0.0096 |
| GGCGTTCATG | 0.9968 ± 0.0081 |
| GGCTACAGCG | 0.987 ± 0.0032 |
| GGCTAGCCTA | 1.01 ± 0.013 |
| GGCTAGGGGT | 1.57 ± 0.022 |
| GGCTAGTACT | 1.01 ± 0.011 |
| GGCTATCGGG | 1.02 ± 0.046 |
| GGCTATTTAA | 1.002 ± 0.0063 |
| GGCTCAATGG | 1.04 ± 0.031 |
| GGCTCACTAG | 1.01 ± 0.05 |
| GGCTCAGTTT | 0.979 ± 0.026 |
| GGCTCATTGA | 0.984 ± 0.029 |
| GGCTCTGAGG | 0.972 ± 0.02 |

| Sequence | switch fluorescence ratio |
| --- | --- |
| GGCTGAGGGA | 1.04 ± 0.037 |
| GGCTGAGGGT | 1 ± 0.016 |
| GGCTGGGCTT | 0.99 ± 0.04 |
| GGCTGGGGGG | 0.997 ± 0.02 |
| GGCTGGGGTG | 1.04 ± 0.071 |
| GGCTGTAGAC | 1.006 ± 0.0059 |
| GGCTTAATAG | 1.01 ± 0.033 |
| GGCTTAGTTT | 1.01 ± 0.0055 |
| GGCTTATTTT | 1.0031 ± 6.6e-05 |
| GGCTTCTTGA | 0.966 ± 0.017 |
| GGCTTGAACT | 1.05 ± 0.083 |
| GGCTTGCCTC | 1.023 ± 0.0069 |
| GGGAAAGAAT | 0.978 ± 0.011 |
| GGGAAAGGAT | 1.02 ± 0.033 |
| GGGAAAGTTT | 0.996 ± 0.023 |
| GGGAAATATG | 1.01 ± 0.012 |
| GGGAAATGGT | 1.01 ± 0.027 |
| GGGAAATTCG | 1.012 ± 0.0039 |
| GGGAAATTGG | 1 ± 0.031 |
| GGGAACAGGG | 1.003 ± 0.0024 |
| GGGAACCGGG | 1.2 ± 0.33 |
| GGGAACGGTA | 0.9955 ± 0.0076 |
| GGGAACTGGG | 1.04 ± 0.049 |
| GGGAAGAATA | 0.986 ± 0.018 |
| GGGAAGAGGG | 1 ± 0.016 |

| Sequence | switch fluorescence ratio |
| --- | --- |
| GGGAAGAGTA | 1 ± 0.031 |
| GGGAAGATTC | 1.01 ± 0.04 |
| GGGAAGATTG | 0.966 ± 0.052 |
| GGGAAGCCTT | 1.028 ± 0.0069 |
| GGGAAGGAGT | 0.992 ± 0.043 |
| GGGAAGGCAT | 0.986 ± 0.047 |
| GGGAAGGCGT | 1.12 ± 0.14 |
| GGGAAGGGAT | 0.981 ± 0.031 |
| GGGAAGGGCA | 1.01 ± 0.049 |
| GGGAAGGTAG | 0.995 ± 0.058 |
| GGGAAGGTGG | 1.04 ± 0.02 |
| GGGAAGTCCG | 0.974 ± 0.03 |
| GGGAATACTT | 1 ± 0.038 |
| GGGAATCTTC | 1.01 ± 0.034 |
| GGGACAATAT | 1.02 ± 0.044 |
| GGGACAGACC | 1.09 ± 0.024 |
| GGGACATAGT | 0.9616 ± 0.0037 |
| GGGACATTGT | 0.963 ± 0.03 |
| GGGACCAGGG | 0.989 ± 0.027 |
| GGGACCATAT | 1.03 ± 0.015 |
| GGGACCGTAT | 1 ± 0.023 |
| GGGACCTTTG | 0.994 ± 0.01 |
| GGGACGAATC | 1.006 ± 0.0041 |
| GGGACGATGG | 0.9857 ± 0.0013 |
| GGGACGCAGG | 1.015 ± 0.008 |

| Sequence | switch fluorescence ratio |
| --- | --- |
| GGGACGGGGG | 1.06 ± 0.16 |
| GGGACGGGGT | 0.963 ± 0.063 |
| GGGACGGGTT | 0.974 ± 0.029 |
| GGGACGTGTT | 1.02 ± 0.028 |
| GGGACTTATG | 1 ± 0.013 |
| GGGACTTCAA | 1 ± 0.039 |
| GGGACTTGGG | 0.998 ± 0.037 |
| GGGAGAATGC | 0.939 ± 0.097 |
| GGGAGACAGA | 0.957 ± 0.074 |
| GGGAGACTCG | 0.96678 ± 0.00026 |
| GGGAGCAAAG | 1.04 ± 0.026 |
| GGGAGCCCCA | 1.04 ± 0.039 |
| GGGAGCGCCG | 1.03 ± 0.039 |
| GGGAGCTGCG | 1 ± 0.018 |
| GGGAGCTGTT | 1.06 ± 0.11 |
| GGGAGCTTTT | 0.999 ± 0.023 |
| GGGAGGAGGG | 0.976 ± 0.035 |
| GGGAGGCCGG | 1 ± 0.036 |
| GGGAGGCGAG | 1.016 ± 0.0011 |
| GGGAGGGGGA | 1.01 ± 0.035 |
| GGGAGGGGGT | 1 ± 0.035 |
| GGGAGGGGTA | 1 ± 0.029 |
| GGGAGGGTTA | 0.996 ± 0.055 |
| GGGAGGGTTC | 1.01 ± 0.083 |
| GGGAGTAGCA | 1.02 ± 0.026 |

| Sequence | switch fluorescence ratio |
| --- | --- |
| GGGAGTATGG | 0.977 ± 0.027 |
| GGGAGTGGTG | 1.12 ± 0.17 |
| GGGAGTGTCA | 0.981 ± 0.0045 |
| GGGAGTGTGT | 0.986 ± 0.039 |
| GGGAGTGTTT | 1 ± 0.026 |
| GGGAGTTAGA | 0.9885 ± 0.0063 |
| GGGAGTTAGG | 0.9609 ± 0.0049 |
| GGGAGTTTAG | 0.994 ± 0.016 |
| GGGATACCCT | 0.9798 ± 0.00069 |
| GGGATAGGGA | 1.01 ± 0.045 |
| GGGATAGTGG | 0.979 ± 0.03 |
| GGGATATCTG | 0.98847 ± 0.00072 |
| GGGATATGTA | 1.01 ± 0.041 |
| GGGATCCCTT | 1.03 ± 0.05 |
| GGGATCCTTG | 1 ± 0.022 |
| GGGATGACCT | 1.1 ± 0.044 |
| GGGATGCGTG | 0.991 ± 0.043 |
| GGGATGGATC | 0.9929 ± 0.0011 |
| GGGATGGGCA | 1.01 ± 0.055 |
| GGGATTAAAG | 1.02 ± 0.017 |
| GGGATTGATC | 1.02 ± 0.021 |
| GGGATTGGAT | 0.967 ± 0.037 |
| GGGATTGGGA | 0.99 ± 0.045 |
| GGGATTTGGC | 0.995 ± 0.036 |
| GGGCAAAATG | 0.981 ± 0.036 |

| Sequence | switch fluorescence ratio |
| --- | --- |
| GGGCAAACAG | 0.959 ± 0.029 |
| GGGCAAACGA | 1.12 ± 0.025 |
| GGGCAAATGA | 0.9764 ± 0.0041 |
| GGGCAAGACA | 1.23 ± 0.018 |
| GGGCAAGCTG | 1.04 ± 0.1 |
| GGGCAAGGGT | 0.977 ± 0.029 |
| GGGCAATCTT | 1.119 ± 0.0083 |
| GGGCAATTGG | 0.992 ± 0.0056 |
| GGGCACTCTT | 1 ± 0.011 |
| GGGCACTTGT | 1.01 ± 0.04 |
| GGGCAGGCGA | 1.011 ± 0.0077 |
| GGGCAGGTGG | 1.08 ± 0.065 |
| GGGCATAGG | 1.008 ± 0.0014 |
| GGGCATGGAA | 0.969 ± 0.018 |
| GGGCCAAGTA | 0.983 ± 0.033 |
| GGGCCACTCG | 0.9716 ± 0.0096 |
| GGGCCCAGCT | 1.02 ± 0.031 |
| GGGCCGAATG | 1.009 ± 0.0025 |
| GGGCCTGAGG | 0.969 ± 0.028 |
| GGGCCTTTTC | 1 ± 0.056 |
| GGGCGACACG | 1 ± 0.06 |
| GGGCGACTGT | 0.978 ± 0.023 |
| GGGCGATGTT | 0.984 ± 0.04 |
| GGGCGCAGCG | 0.978 ± 0.031 |
| GGGCGCAGGG | 1.01 ± 0.01 |

| Sequence | switch fluorescence ratio |
| --- | --- |
| GGGCGCCTAA | 1 ± 0.046 |
| GGGCGCCTGC | 0.9942 ± 0.0065 |
| GGGCGGGGGT | 1.02 ± 0.019 |
| GGGCGGTTTG | 0.971 ± 0.046 |
| GGGCGTACGG | 1.06 ± 0.045 |
| GGGCGTTTCG | 1.005 ± 0.0089 |
| GGGCTAAGGG | 0.985 ± 0.056 |
| GGGCTAGGCA | 1.02 ± 0.014 |
| GGGCTAGGGG | 0.994 ± 0.029 |
| GGGCTAGGTT | 0.986 ± 0.031 |
| GGGCTAGTAC | 1.13 ± 0.017 |
| GGGCTATCAT | 0.965 ± 0.012 |
| GGGCTATTAT | 1.02 ± 0.081 |
| GGGCTCAGGC | 0.988 ± 0.0094 |
| GGGCTGCCGA | 1.03 ± 0.021 |
| GGGCTGTCTG | 0.9631 ± 0.0076 |
| GGGCTTCAGA | 0.987 ± 0.023 |
| GGGCTTCTTG | 0.962 ± 0.021 |
| GGGCTTCTTT | 0.996 ± 0.034 |
| GGGCTTTATA | 1.02 ± 0.014 |
| GGGGAAAAAA | 1.06 ± 0.14 |
| GGGGAAAAAG | 1.01 ± 0.028 |
| GGGGAAAAGA | 1 ± 0.025 |
| GGGGAAAGAA | 1.02 ± 0.064 |
| GGGGAACACT | 1.01 ± 0.022 |

| Sequence | switch fluorescence ratio |
| --- | --- |
| GGGGAAGACT | 0.989 ± 0.016 |
| GGGGAAGATT | 0.986 ± 0.03 |
| GGGGAAGGT | 1.04 ± 0.019 |
| GGGGAAGGTT | 0.991 ± 0.037 |
| GGGGAATCAG | 1.03 ± 0.017 |
| GGGGAATGCT | 1.01 ± 0.02 |
| GGGGAATGTA | 0.971 ± 0.022 |
| GGGGAATTAA | 0.99 ± 0.018 |
| GGGGAATTCA | 1.04 ± 0.046 |
| GGGGAATTCG | 1.02 ± 0.043 |
| GGGGAATTTT | 1.01 ± 0.037 |
| GGGGACAGGG | 1.01 ± 0.051 |
| GGGGACAGGT | 1.03 ± 0.0057 |
| GGGGACCGGG | 1.07 ± 0.094 |
| GGGGACCTAT | 1.02 ± 0.018 |
| GGGGACTACT | 1 ± 0.025 |
| GGGGACTGAT | 0.995 ± 0.022 |
| GGGGACTGGT | 1 ± 0.043 |
| GGGGACTTGC | 0.9913 ± 0.0045 |
| GGGGAGCAGC | 1.11 ± 0.22 |
| GGGGAGCATT | 1.04 ± 0.013 |
| GGGGAGGGAT | 0.996 ± 0.017 |
| GGGGAGGGCT | 0.964 ± 0.033 |
| GGGGAGGGGC | 1.01 ± 0.065 |
| GGGGAGGTCT | 1.01 ± 0.03 |
